Experimental data from PMC6395948 (Molecular Cell, 2019).

Assays:
crystal structure = target: the molecule itself; assay: crystal structure
McbD = target: T1, McbD (Escherichia coli, UniProt P23186 1-396); assay: crystal structure
T1 sequence: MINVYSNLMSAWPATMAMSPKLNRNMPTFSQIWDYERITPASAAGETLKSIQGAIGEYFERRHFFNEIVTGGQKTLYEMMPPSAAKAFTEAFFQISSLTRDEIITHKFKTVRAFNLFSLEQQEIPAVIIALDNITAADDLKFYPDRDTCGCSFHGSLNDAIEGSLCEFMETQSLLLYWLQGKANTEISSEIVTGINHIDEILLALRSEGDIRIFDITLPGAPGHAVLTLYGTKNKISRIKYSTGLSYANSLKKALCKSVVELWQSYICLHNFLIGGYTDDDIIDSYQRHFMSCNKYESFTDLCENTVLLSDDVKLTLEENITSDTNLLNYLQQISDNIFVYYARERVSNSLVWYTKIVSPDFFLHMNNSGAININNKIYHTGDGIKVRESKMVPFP

binding result (McbD): binds
B1: McbB (natural protein, Escherichia coli)
chain: MVLPDIKKGKDMINILPFEIISRNTKTLLITYISSVDITHEGMKKVLESLRSKQGIISEYLLDKLLDESLIDKDKGKEFLITTGVINKTKTSPLWVNSVIISDVPHLFSNAREQWKCDGVFVSHIIDIKDNNINVSDSTLIWLHLENYHSDIVKRIYSKFESNPGVAFIQSYYLKESFRIDGVYSPDLGTPCHFCHIERWLSREEKSFRRNEMSWANLLQLLKKYQMTLPALALGESERGFSYHLIKRRLQELTGTSLVKSHVDNFMSSVSADLITCILCKEPVIHWQACSCLER
stoichiometry N (crystal structure): 2
